This note sets out measurements from patent publication US20190202883A1 (Takeda / Millennium, published 2019).

Square brackets hold non-standard residues; d marks the D form. Side chains are listed from the residue outwards. Ends that are not written are not given here. Phe(2-F) = N[C@@H](Cc1ccccc1F)C(=O)O; NMeY = CN[C@@H](Cc1ccc(O)cc1)C(=O)O; αMeF = C[C@](N)(Cc1ccccc1)C(=O)O; Iva = CC[C@](C)(N)C(=O)O; Oda = not defined here; Aib = CC(C)(N)C(=O)O

Assay in all cases: cell-based or functional assay
The target of one test is human GLP-1R (human, UniProt P43220 24-463).
A further test concerns the target T1, human GIPR (human, UniProt P48546 22-466).
T1 sequence (looked up): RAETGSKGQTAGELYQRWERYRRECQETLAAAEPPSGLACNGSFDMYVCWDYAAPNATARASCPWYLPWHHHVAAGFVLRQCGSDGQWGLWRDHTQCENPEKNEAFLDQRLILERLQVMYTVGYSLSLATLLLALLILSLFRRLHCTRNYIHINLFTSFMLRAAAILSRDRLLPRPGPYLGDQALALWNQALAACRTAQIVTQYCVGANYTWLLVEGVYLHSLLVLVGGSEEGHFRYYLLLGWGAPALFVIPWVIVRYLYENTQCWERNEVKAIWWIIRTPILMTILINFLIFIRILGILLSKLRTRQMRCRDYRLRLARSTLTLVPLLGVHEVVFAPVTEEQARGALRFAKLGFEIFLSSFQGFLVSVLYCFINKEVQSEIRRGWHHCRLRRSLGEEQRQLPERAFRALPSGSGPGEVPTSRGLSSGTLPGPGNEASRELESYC

In the next test the target is T2, human NPY2R (human, UniProt P49146 1-381).
T2 sequence (looked up): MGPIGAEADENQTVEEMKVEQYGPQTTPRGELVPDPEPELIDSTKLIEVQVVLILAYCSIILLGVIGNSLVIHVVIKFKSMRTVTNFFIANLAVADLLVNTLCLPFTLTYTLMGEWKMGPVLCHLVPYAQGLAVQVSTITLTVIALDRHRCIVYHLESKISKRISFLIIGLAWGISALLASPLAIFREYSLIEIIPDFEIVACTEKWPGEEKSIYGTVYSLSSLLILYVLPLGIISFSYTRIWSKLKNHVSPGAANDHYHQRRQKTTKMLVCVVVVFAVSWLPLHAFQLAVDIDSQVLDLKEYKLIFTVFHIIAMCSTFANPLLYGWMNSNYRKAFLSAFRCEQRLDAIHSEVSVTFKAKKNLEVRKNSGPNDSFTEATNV

Regarding Me-Y[Aib]EGT[αMeF]TSDK([Gly-Gly-Gly-Gly-Pal])SI[Aib]LEKQRQ[Iva]EFVRHLLNK[Aib]TRQRY-NH2, the “Agonist activity (EC50), Cre-luc reporter assay” value (shortened to “Agonist activity (EC50)”) with human GLP-1R amounted to 0.048 nM; with human GIPR, 0.052 nM; with human NPY2R, 0.049 nM.

B1: Me-Tyr-Aib-Glu-Gly-Thr-αMePhe-Thr-Ser-Asp-Lys(-Gly-Gly-Gly-Gly-Oda)-Ser-Ile-Aib-Leu-Glu-Lys-Gln-Arg-Gln-Iva-Glu-Phe-Val-Arg-His-Leu-Leu-Asn-Lys-Aib-Thr-Arg-Gln- … (peptide)
peptide: Me-Y[Aib]EGT[αMeF]TSDK([Gly-Gly-Gly-Gly-Oda])SI[Aib]LEKQRQ[Iva]EFVRHLLNK[Aib]TRQRY-NH2
modifications: reading uncertain; also: printed as Me-Tyr-Aib-Glu-Gly-Thr-αMePhe-Thr-Ser-Asp-Lys(-Gly-Gly-Gly-Gly-Oda)-Ser-Ile-Aib-Leu-Glu-Lys-Gln-Arg-Gln-Iva-Glu-Phe-Val-Arg-His-Leu-Leu-Asn-Lys-Aib-Thr-Arg-Gln-Arg-Tyr-NH2
As to B1, the “Agonist activity (EC50)” value with human GLP-1R came to 1.3 nM; with human GIPR, 0.25 nM; with human NPY2R, 2.6 nM.
With Me-Y[Aib]EGT[αMeF]TSDK([Gly-Gly-Gly-Gly-Pal])AI[Aib]LEKQRQ[Iva]EFVRHLLNK[Aib]TRQRY-NH2, the “Agonist activity (EC50)” value with human GLP-1R was 0.036 nM; with human GIPR, 0.04 nM; in the test with human NPY2R it was 0.026 nM.

B2: Me-Tyr-Aib-Glu-Gly-Thr-αMePhe-Thr-Ser-Asp-Lys(-Gly-Gly-Gly-Gly-Oda)-Ala-Ile-Aib-Leu-Glu-Lys-Gln-Arg-Gln-Iva-Glu-Phe-Val-Arg-His-Leu-Leu-Asn-Lys-Aib-Thr-Arg-Gln- … (peptide)
peptide: [NMeY][Aib]EGT[αMeF]TSDK([Gly-Gly-Gly-Gly-Oda])AI[Aib]LEKQRQ[Iva]EFVRHLLNK[Aib]TRQRY-NH2
modifications: reading uncertain; also: printed as Me-Tyr-Aib-Glu-Gly-Thr-αMePhe-Thr-Ser-Asp-Lys(-Gly-Gly-Gly-Gly-Oda)-Ala-Ile-Aib-Leu-Glu-Lys-Gln-Arg-Gln-Iva-Glu-Phe-Val-Arg-His-Leu-Leu-Asn-Lys-Aib-Thr-Arg-Gln-Arg-Tyr-NH2
Consider B2, for which the “Agonist activity (EC50)” value with human GLP-1R is 2.3 nM; with human GIPR, 0.4 nM; with human NPY2R it was 1.7 nM.
For H-Y[Aib]EGT[αMeF]TSDK([Gly-Gly-Gly-Gly-Pal])SI[Aib]LEKQRQ[Iva]EFVRHLLNK[Aib]TRQRY-NH2, the “Agonist activity (EC50)” value with human GLP-1R is 0.053 nM; in the test with human GIPR it was 0.041 nM; in the test with human NPY2R it was 0.041 nM.

B3: Me-Tyr-Aib-Glu-Gly-Thr-αMePhe-Thr-Ser-Asp-Lys(-Gly-Gly-Gly-Gly-Oda)-Aib-Ile-Aib-Leu-Asp-Lys-Gln-Arg-Gln-Iva-Glu-Phe-Val-Arg-His-Leu-Leu-Asn-Lys-Aib-Thr-Arg-Gln- … (peptide)
peptide: Me-Y[Aib]EGT[αMeF]TSDK([Gly-Gly-Gly-Gly-Oda])[Aib]I[Aib]LDKQRQ[Iva]EFVRHLLNK[Aib]TRQR[Phe(2-F)]-NH2
modifications: reading uncertain; also: printed as Me-Tyr-Aib-Glu-Gly-Thr-αMePhe-Thr-Ser-Asp-Lys(-Gly-Gly-Gly-Gly-Oda)-Aib-Ile-Aib-Leu-Asp-Lys-Gln-Arg-Gln-Iva-Glu-Phe-Val-Arg-His-Leu-Leu-Asn-Lys-Aib-Thr-Arg-Gln-Arg-Phe(2-F)-NH2
With B3, the entries for the “Agonist activity (EC50)” value with human GLP-1R, with human GIPR and with human NPY2R were 1.5 nM, 0.29 nM and 1 nM, respectively.
Regarding Me-Y[Aib]EGT[αMeF]TSDK([Gly-Gly-Gly-Gly-Pal])[Aib]I[Aib]LDKQRQ[Iva]EFVRHLLNK[Aib]TRQR[Phe(2-F)]-NH2, the figures for the “Agonist activity (EC50)” value with human GLP-1R, with human GIPR and with human NPY2R were 0.13 nM, 0.093 nM and 0.12 nM, respectively.

B4: H-Tyr-Aib-Glu-Gly-Thr-αMePhe-Thr-Ser-Asp-Lys(-Gly-Gly-Gly-Gly-Oda)-Ser-Ile-Aib-Leu-Glu-Lys-Gln-Arg-Gln-Iva-Glu-Phe-Val-Arg-His-Leu-Leu-Asn-Lys-Aib-Thr-Arg-Gln-A … (peptide)
peptide: H-Y[Aib]EGT[αMeF]TSDK([Gly-Gly-Gly-Gly-Oda])SI[Aib]LEKQRQ[Iva]EFVRHLLNK[Aib]TRQRY-NH2
modifications: reading uncertain; also: printed as H-Tyr-Aib-Glu-Gly-Thr-αMePhe-Thr-Ser-Asp-Lys(-Gly-Gly-Gly-Gly-Oda)-Ser-Ile-Aib-Leu-Glu-Lys-Gln-Arg-Gln-Iva-Glu-Phe-Val-Arg-His-Leu-Leu-Asn-Lys-Aib-Thr-Arg-Gln-Arg-Tyr-NH2
As to B4, the “Agonist activity (EC50)” value in the test with human GLP-1R came out at 0.24 nM; with human GIPR, 0.17 nM; with human NPY2R, 1.6 nM.

B5: H-Tyr-Aib-Glu-Gly-Thr-αMePhe-Thr-Ser-Asp-Lys(-Gly-Gly-Gly-Gly-Oda)-Aib-Ile-Aib-Leu-Asp-Lys-Gln-Arg-Gln-Iva-Glu-Phe-Val-Arg-His-Leu-Leu-Asn-Lys-Aib-Thr-Arg-Gln-A … (peptide)
peptide: H-Y[Aib]EGT[αMeF]TSDK([Gly-Gly-Gly-Gly-Oda])[Aib]I[Aib]LDKQRQ[Iva]EFVRHLLNK[Aib]TRQR[Phe(2-F)]-NH2
modifications: reading uncertain; also: printed as H-Tyr-Aib-Glu-Gly-Thr-αMePhe-Thr-Ser-Asp-Lys(-Gly-Gly-Gly-Gly-Oda)-Aib-Ile-Aib-Leu-Asp-Lys-Gln-Arg-Gln-Iva-Glu-Phe-Val-Arg-His-Leu-Leu-Asn-Lys-Aib-Thr-Arg-Gln-Arg-Phe(2-F)-NH2
Turning to B5, the “Agonist activity (EC50)” value is 0.61 nM with human GLP-1R, 0.41 nM in the test with human GIPR and 1.3 nM in the test with human NPY2R.

B6: H-Tyr-Aib-Glu-Gly-Thr-αMePhe-Thr-Ser-Asp-Lys(-Gly-Gly-Gly-Gly-Oda)-Aib-Ile-Aib-Leu-Asp-Lys-Gln-Arg-Gln-Iva-Glu-Phe-Val-Arg-His-Leu-Leu-Asn-Lys-Aib-Thr-Arg-Gln-A … (peptide)
peptide: H-Y[Aib]EGT[αMeF]TSDK([Gly-Gly-Gly-Gly-Oda])[Aib]I[Aib]LDKQRQ[Iva]EFVRHLLNK[Aib]TRQRY-NH2
modifications: reading uncertain; also: printed as H-Tyr-Aib-Glu-Gly-Thr-αMePhe-Thr-Ser-Asp-Lys(-Gly-Gly-Gly-Gly-Oda)-Aib-Ile-Aib-Leu-Asp-Lys-Gln-Arg-Gln-Iva-Glu-Phe-Val-Arg-His-Leu-Leu-Asn-Lys-Aib-Thr-Arg-Gln-Arg-Tyr-NH2
On to B6, for which the “Agonist activity (EC50)” value is 0.32 nM with human GLP-1R, 0.22 nM with human GIPR and 2.1 nM with human NPY2R.
Taken in the same sequence, the figures for H-Y[Aib]EGT[αMeF]TSDK([Gly-Gly-Gly-Gly-Pal])[Aib]I[Aib]LDKQAQ[Iva]EFVRHLLNK[Aib]TRQR[Phe(2-F)]-NH2 were 0.014 nM, 0.035 nM and 0.031 nM.

B7: H-Tyr-Aib-Glu-Gly-Thr-αMePhe-Thr-Ser-Asp-Lys(-Gly-Gly-Gly-Gly-Oda)-Ala-Ile-Aib-Leu-Glu-Lys-Gln-Arg-Gln-Iva-Glu-Phe-Val-Arg-His-Leu-Leu-Asn-Lys-Aib-Thr-Arg-Gln-A … (peptide)
peptide: H-Y[Aib]EGT[αMeF]TSDK([Gly-Gly-Gly-Gly-Oda])AI[Aib]LEKQRQ[Iva]EFVRHLLNK[Aib]TRQRY-NH2
modifications: reading uncertain; also: printed as H-Tyr-Aib-Glu-Gly-Thr-αMePhe-Thr-Ser-Asp-Lys(-Gly-Gly-Gly-Gly-Oda)-Ala-Ile-Aib-Leu-Glu-Lys-Gln-Arg-Gln-Iva-Glu-Phe-Val-Arg-His-Leu-Leu-Asn-Lys-Aib-Thr-Arg-Gln-Arg-Tyr-NH2
Turning to B7, the “Agonist activity (EC50)” value with human GLP-1R is 0.53 nM; with human GIPR, 0.36 nM; in the test with human NPY2R, 1.1 nM.
Taken in the same sequence, the figures for H-Y[Aib]EGT[αMeF]TSDK([Gly-Gly-Gly-Gly-Pal])[Aib]I[Aib]LDKQRQ[Iva]EFVRHLLNK[Aib]TRQRY-NH2 were 0.082 nM, 0.068 nM and 0.1 nM.
As for Me-Y[Aib]EGT[αMeF]TSDK([Gly-Gly-Gly-Gly-Pal])[Aib]I[Aib]LDKQRQ[Iva]EFVRHLLNK[Aib]TRQRY-NH2, the entries for the “Agonist activity (EC50)” value with human GLP-1R, with human GIPR and with human NPY2R were 0.083 nM, 0.068 nM and 0.1 nM, respectively.

B8: Me-Tyr-Aib-Glu-Gly-Thr-αMePhe-Thr-Ser-Asp-Lys(-Gly-Gly-Gly-Gly-Oda)-Aib-Ile-Aib-Leu-Glu-Lys-Gln-Arg-Gln-Iva-Glu-Phe-Val-Arg-His-Leu-Leu-Asn-Lys-Aib-Thr-Arg-Gln- … (peptide)
peptide: Me-Y[Aib]EGT[αMeF]TSDK([Gly-Gly-Gly-Gly-Oda])[Aib]I[Aib]LEKQRQ[Iva]EFVRHLLNK[Aib]TRQRY-NH2
modifications: reading uncertain; also: printed as Me-Tyr-Aib-Glu-Gly-Thr-αMePhe-Thr-Ser-Asp-Lys(-Gly-Gly-Gly-Gly-Oda)-Aib-Ile-Aib-Leu-Glu-Lys-Gln-Arg-Gln-Iva-Glu-Phe-Val-Arg-His-Leu-Leu-Asn-Lys-Aib-Thr-Arg-Gln-Arg-Tyr-NH2
Regarding B8, the “Agonist activity (EC50)” value with human GLP-1R came out at 1.1 nM; with human GIPR it was 0.53 nM; in the test with human NPY2R, 1.5 nM.
For the molecule H-Y[Aib]EGT[αMeF]TSDK([Gly-Gly-Gly-Gly-Pal])AI[Aib]LEKQRQ[Iva]EFVRHLLNK[Aib]TRQRY-NH2, the results for the “Agonist activity (EC50)” value in the test with human GLP-1R, with human GIPR and with human NPY2R were 0.045 nM, 0.042 nM and 0.023 nM, respectively.
